Common to all, as to test: SPR (Biacore), bound amount, IL6R-BF648/IL6R-L = 100
One experiment addresses T1, FcγRIIa type H (human, UniProt P12318 36-217).
T1 construct: also called FcγRIIaH; FcγRIIH
T1 sequence: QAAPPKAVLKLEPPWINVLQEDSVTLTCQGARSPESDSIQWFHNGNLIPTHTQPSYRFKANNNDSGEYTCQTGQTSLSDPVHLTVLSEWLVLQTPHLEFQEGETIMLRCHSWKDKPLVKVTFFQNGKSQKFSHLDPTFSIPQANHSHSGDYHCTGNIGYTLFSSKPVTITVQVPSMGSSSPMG

The target of another experiment is T2, FcγRIIIa type V (human, UniProt P08637 17-208, limits assumed).
T2 construct: also called FcγRIIIaV; FcgRIIIaV

A further experiment addresses T3, FcγRIIb (human, UniProt P31994 43-217, limits assumed).
T3 construct: also called FcgRIIb; FcγIIB
T3 sequence: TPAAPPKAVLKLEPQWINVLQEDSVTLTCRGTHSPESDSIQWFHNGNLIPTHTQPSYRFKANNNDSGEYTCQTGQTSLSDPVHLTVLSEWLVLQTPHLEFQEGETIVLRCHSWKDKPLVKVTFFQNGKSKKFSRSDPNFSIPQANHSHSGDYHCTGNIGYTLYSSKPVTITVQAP

For another experiment, the target named is T4, FcγRIa (human, UniProt P12314 16-292, limits assumed).
T4 construct: also called FcgRIa; CD64
T4 sequence (P12314 16-292 limits assumed): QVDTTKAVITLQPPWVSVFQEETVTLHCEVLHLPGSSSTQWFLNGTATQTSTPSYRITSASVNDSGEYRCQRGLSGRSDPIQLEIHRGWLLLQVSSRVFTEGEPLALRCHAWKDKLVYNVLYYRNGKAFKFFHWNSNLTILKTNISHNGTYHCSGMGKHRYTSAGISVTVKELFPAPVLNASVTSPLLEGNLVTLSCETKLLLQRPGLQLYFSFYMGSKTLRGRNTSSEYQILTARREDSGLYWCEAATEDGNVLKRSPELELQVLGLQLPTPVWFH

T2 sequence (P08637 other isoform, or with tags, fused parts or gaps limits assumed): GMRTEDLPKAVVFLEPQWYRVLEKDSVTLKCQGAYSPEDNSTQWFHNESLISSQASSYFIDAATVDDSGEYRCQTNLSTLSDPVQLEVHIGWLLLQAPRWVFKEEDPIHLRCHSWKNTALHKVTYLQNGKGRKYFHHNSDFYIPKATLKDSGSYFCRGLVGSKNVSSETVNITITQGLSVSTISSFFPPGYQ
Description for FcγRIIIa type V: (§1) According to the following method, relative binding activities were calculated for the results of analyzing interactions with the respective FcγRs.
Description for FcγRIIa type H: as §1
Description for FcγRIIb: as §1
Description for FcγRIa: as §1

B1: IL6R-2B253/IL6R-L (antibody, human IgG1)
heavy: QVQLQESGPGLVKPSETLSLTCAVSGHSISHDHAWSWVRQPPGEGLEWIGFISYSGITNYNPSLQGRVTISRDNSKNTLYLQMNSLRAEDTAVYYCARSLARTTAMDYWGEGTLVTVSSASTKGPSVFPLAPSSKSTSGGTAALGCLVKDYFPEPVTVSWNSGALTSGVHTFPAVLQSSGLYSLSSVVTVPSSSLGTQTYICNVNHKPSNTKVDKKVEPKSCDKTHTCPPCPAPDLLGGDSVFLFPPKPKDTLMISRTPEVTCVVVDVSHEDPEVKFNWYVDGVEVHNAKTKPREEQYNSTYRVVSVLTVLHQDWLNGKEYKCKMSNKALPAPIEKTISKAKGQPREPQVYTLPPSRDELTKNQVSLTCLVKGFYPSDIAVEWESNGQPENNYKTTPPVLDSDGSFFLYSKLTVDKSRWQQGNVFSCSVMHEALHNHYTQESLSLSP
light: DIQMTQSPSSLSASVGDRVTITCRASQDISSYLNWYQQKPGKAPKLLIYYTSRLHSGVPSRFSGSGSGTDFTFTISSLQPEDIATYYCQQGNTLPYTFGQGTKVEIK
notes: IgG1; Fc variant of IL6R-B3; copies: 2 + 2
As for B1, the relative binding activity in the experiment with FcγRIIa type H was 207 % of control; with FcγRIIIa type V, 126 % of control; with FcγRIIb it was 156 % of control; in the experiment with FcγRIa it was 155 % of control.

B2: IL6R-BP195/IL6R-L (antibody, human IgG1)
heavy: QVQLQESGPGLVKPSETLSLTCAVSGHSISHDHAWSWVRQPPGEGLEWIGFISYSGITNYNPSLQGRVTISRDNSKNTLYLQMNSLRAEDTAVYYCARSLARTTAMDYWGEGTLVTVSSASTKGPSVFPLAPSSKSTSGGTAALGCLVKDYFPEPVTVSWNSGALTSGVHTFPAVLQSSGLYSLSSVVTVPSSSLGTQTYICNVNHKPSNTKVDKKVEPKSCDKTHTCPPCPAPDYLGDDSVFLFPPKPKDTLMISRTPEVTCVVVDVSDEDGEVKFNWYVDGVEVHNAKTKPREEQDNSTYRVVSVLTVLHQDWLNGKEYKCKVSNAALPKPIEKTISKAKGQPREPQVYTLPPSRDELTKNQVSLTCLVKGFYPSDIAVEWESNGQPENNYKTTPPVLDSDGSFFLYSKLTVDKSRWQQGNVFSCSVMHEALHNHYTQESLSLSP
light: DIQMTQSPSSLSASVGDRVTITCRASQDISSYLNWYQQKPGKAPKLLIYYTSRLHSGVPSRFSGSGSGTDFTFTISSLQPEDIATYYCQQGNTLPYTFGQGTKVEIK
notes: as for B1
On to B2, for which the relative binding activity in the experiment with FcγRIIa type H was 344 % of control; with FcγRIIIa type V, 221 % of control; in the experiment with FcγRIa, 66 % of control.

B3: IL6R-2B261/IL6R-L (antibody, human IgG1)
heavy: QVQLQESGPGLVKPSETLSLTCAVSGHSISHDHAWSWVRQPPGEGLEWIGFISYSGITNYNPSLQGRVTISRDNSKNTLYLQMNSLRAEDTAVYYCARSLARTTAMDYWGEGTLVTVSSASTKGPSVFPLAPSSKSTSGGTAALGCLVKDYFPEPVTVSWNSGALTSGVHTFPAVLQSSGLYSLSSVVTVPSSSLGTQTYICNVNHKPSNTKVDKKVEPKSCDKTHTCPPCPAPDLLGGDSVFLFPPKPKDTLMISRTPEVTCVVVDVSHEDPEVKFNWYVDGVEVHNAKTKPREEQDNSTYRVVSVLTVLHQDWLNGKEYKCKVSNKALPAPIEKTISKAKGQPREPQVYTLPPSRDELTKNQVSLTCLVKGFYPSDIAVEWESNGQPENNYKTTPPVLDSDGSFFLYSKLTVDKSRWQQGNVFSCSVMHEALHNHYTQESLSLSP
light: DIQMTQSPSSLSASVGDRVTITCRASQDISSYLNWYQQKPGKAPKLLIYYTSRLHSGVPSRFSGSGSGTDFTFTISSLQPEDIATYYCQQGNTLPYTFGQGTKVEIK
notes: as for B1
Turning to B3, the relative binding activity with FcγRIIa type H is 91 % of control; with FcγRIIIa type V, 87 % of control; with FcγRIIb, 115 % of control; in the experiment with FcγRIa, 100 % of control.

B4: IL6R-BP191/IL6R-L (antibody, human IgG1)
heavy: QVQLQESGPGLVKPSETLSLTCAVSGHSISHDHAWSWVRQPPGEGLEWIGFISYSGITNYNPSLQGRVTISRDNSKNTLYLQMNSLRAEDTAVYYCARSLARTTAMDYWGEGTLVTVSSASTKGPSVFPLAPSSKSTSGGTAALGCLVKDYFPEPVTVSWNSGALTSGVHTFPAVLQSSGLYSLSSVVTVPSSSLGTQTYICNVNHKPSNTKVDKKVEPKSCDKTHTCPPCPAPDLLGGDSVFLFPPKPKDTLMISRTPEVTCVVVDVSDEDGEVKFNWYVDGVEVHNAKTKPREEQYNSTYRVVSVLTVLHQDWLNGKEYKCKVSNAALPKPIEKTISKAKGQPREPQVYTLPPSRDELTKNQVSLTCLVKGFYPSDIAVEWESNGQPENNYKTTPPVLDSDGSFFLYSKLTVDKSRWQQGNVFSCSVMHEALHNHYTQESLSLSP
light: DIQMTQSPSSLSASVGDRVTITCRASQDISSYLNWYQQKPGKAPKLLIYYTSRLHSGVPSRFSGSGSGTDFTFTISSLQPEDIATYYCQQGNTLPYTFGQGTKVEIK
notes: as for B1
As for B4, the values for the relative binding activity with FcγRIIa type H, in the experiment with FcγRIIIa type V and with FcγRIa were 145 % of control, 142 % of control and 125 % of control, respectively.

B5: IL6R-BP211/IL6R-L (antibody, human IgG1)
heavy: QVQLQESGPGLVKPSETLSLTCAVSGHSISHDHAWSWVRQPPGEGLEWIGFISYSGITNYNPSLQGRVTISRDNSKNTLYLQMNSLRAEDTAVYYCARSLARTTAMDYWGEGTLVTVSSASTKGPSVFPLAPSSKSTSGGTAALGCLVKDYFPEPVTVSWNSGALTSGVHTFPAVLQSSGLYSLSSVVTVPSSSLGTQTYICNVNHKPSNTKVDKKVEPKSCDKTHTCPPCPAPDLLGGDSVFLFPPKPKDTLMISRTPEVTCVVVDVSDEDGEVKFNWYVDGVEVHNAKTKPREEQYNSTYRVVSVLTVLHQDWLNGKEYKCKVSNAALPRPIEKTISKAKGQPREPQVYTLPPSRDELTKNQVSLTCLVKGFYPSDIAVEWESNGQPENNYKTTPPVLDSDGSFFLYSKLTVDKSRWQQGNVFSCSVMHEALHNHYTQESLSLSP
light: DIQMTQSPSSLSASVGDRVTITCRASQDISSYLNWYQQKPGKAPKLLIYYTSRLHSGVPSRFSGSGSGTDFTFTISSLQPEDIATYYCQQGNTLPYTFGQGTKVEIK
notes: as for B1
Take B5: the relative binding activity with FcγRIIIa type V is 87 % of control; with FcγRIIb, 165 % of control; with FcγRIa, 128 % of control.

B6: IL6R-BP190/IL6R-L (antibody, human IgG1)
heavy: QVQLQESGPGLVKPSETLSLTCAVSGHSISHDHAWSWVRQPPGEGLEWIGFISYSGITNYNPSLQGRVTISRDNSKNTLYLQMNSLRAEDTAVYYCARSLARTTAMDYWGEGTLVTVSSASTKGPSVFPLAPSSKSTSGGTAALGCLVKDYFPEPVTVSWNSGALTSGVHTFPAVLQSSGLYSLSSVVTVPSSSLGTQTYICNVNHKPSNTKVDKKVEPKSCDKTHTCPPCPAPELLGDDSVFLFPPKPKDTLMISRTPEVTCVVVDVSDEDGEVKFNWYVDGVEVHNAKTKPREEQYNSTYRVVSVLTVLHQDWLNGKEYKCKVSNKALPKPIEKTISKAKGQPREPQVYTLPPSRDELTKNQVSLTCLVKGFYPSDIAVEWESNGQPENNYKTTPPVLDSDGSFFLYSKLTVDKSRWQQGNVFSCSVMHEALHNHYTQESLSLSP
light: DIQMTQSPSSLSASVGDRVTITCRASQDISSYLNWYQQKPGKAPKLLIYYTSRLHSGVPSRFSGSGSGTDFTFTISSLQPEDIATYYCQQGNTLPYTFGQGTKVEIK
notes: as for B1
For the molecule B6, the relative binding activity with FcγRIIa type H was 224 % of control; in the experiment with FcγRIIIa type V, 155 % of control; with FcγRIa it was 50 % of control.

The record behind these values is patent US20200199241A1 (Chugai, published 2020).
